Results reported in paper PMC3789972, “Human Mitochondrial Chaperone (mtHSP70) and Cysteine Desulfurase (NFS1) Bind Preferentially to the Disordered Conformation, Whereas Co-chaperone (HSC20) Binds to the Structured Conformation of the Iron-Sulfur Cluster Scaffold Protein (ISCU)*” (The Journal of Biological Chemistry, 2013).

How the values were obtained:
[1] = biological target: human mitochondrial DnaK-type chaperone mtHSP70, mature form (human) (UniProt P38646)
[2] = biological target: human ISCU(N90A), mature form (human); assay: NMR titration; 1H,15N TROSY-HSQC of 0.5 mM U-15N-ISCU or U-15N-ISCU(N90A), aliquots of 0.4 mM unlabeled HSC20 added up to equimolar; TKDM buffer, 25 °C; %S from the Trp-76 cross-peaks and chemical shift perturbations
[3] = biological target: human iron-sulfur cluster scaffold protein ISCU, wild type, mature form (human) (UniProt Q9H1K1); assay: as above
[4] = biological target: human ISCU(H105A), mature form (human); assay: NMR titration; 1H,15N HSQC / TROSY-HSQC of 0.5 mM U-15N-ISCU or variant, aliquots of 0.5 mM unlabeled mtHSP70 added up to equimolar; TKDM buffer (50 mM Tris-HCl pH 7.5, 150 mM KCl, 5 mM DTT, 10 mM MgCl2), 25 °C; %S from the Trp-76 cross-peaks
[5] = biological target: human ISCU(N90A), mature form (human); assay: as above
[6] = biological target: human mitochondrial DnaK-type chaperone mtHSP70, mature form (human, UniProt P38646 47-679); assay: cell-based or functional assay
Chain of human mitochondrial DnaK-type chaperone mtHSP70, mature form (human, UniProt P38646 47-679) (P38646 47-679): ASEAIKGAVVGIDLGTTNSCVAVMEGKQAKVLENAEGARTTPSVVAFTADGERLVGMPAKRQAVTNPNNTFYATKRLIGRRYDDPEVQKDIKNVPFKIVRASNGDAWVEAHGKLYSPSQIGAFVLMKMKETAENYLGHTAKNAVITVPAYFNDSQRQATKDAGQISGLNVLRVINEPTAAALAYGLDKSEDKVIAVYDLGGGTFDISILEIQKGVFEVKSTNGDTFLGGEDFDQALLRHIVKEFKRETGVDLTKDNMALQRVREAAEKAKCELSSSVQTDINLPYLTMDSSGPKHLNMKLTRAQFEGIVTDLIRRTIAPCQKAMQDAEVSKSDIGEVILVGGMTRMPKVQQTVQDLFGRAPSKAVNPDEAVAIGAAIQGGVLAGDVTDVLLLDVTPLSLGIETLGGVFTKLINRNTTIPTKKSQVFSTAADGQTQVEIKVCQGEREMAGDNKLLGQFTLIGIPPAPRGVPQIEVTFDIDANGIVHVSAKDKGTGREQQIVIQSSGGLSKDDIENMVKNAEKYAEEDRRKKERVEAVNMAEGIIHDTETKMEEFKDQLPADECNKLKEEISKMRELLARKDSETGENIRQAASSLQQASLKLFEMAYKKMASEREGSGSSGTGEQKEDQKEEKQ

Chain of human mitochondrial DnaK-type chaperone mtHSP70, mature form (human) (P38646 47-679): as above

## human ISCU(N90A), mature form (natural protein)
[1]
  ATPase activity of 1 μM mtHSP70: concentration of ISCU(N90A) required for half-maximal stimulation in the presence of 5 μM HSC20, double-reciprocal plot: 3.5 µM
  ATPase activity of 1 μM mtHSP70: maximal stimulation by ISCU(N90A) in the presence of 5 μM HSC20, double-reciprocal plot: 8 fold
  ATPase activity of 1 μM mtHSP70 as a function of added ISCU(N90A) up to 24 μM in the presence of 5 μM HSC20: increase over basal activity: 7 fold

## human mitochondrial DnaJ-type co-chaperone HSC20, mature form (natural protein)
[2]
  %S of ISCU(N90A) after adding 1 eq of HSC20: 99%
[3]
  %S of ISCU after adding equimolar HSC20: 31%

## human mitochondrial DnaK-type chaperone mtHSP70, mature form (from UniProt P38646 47-679) (natural protein)
[4]
  %S of ISCU(H105A) at mole fraction 1.0 of added mtHSP70: 0.54%
[5]
  %S of ISCU(N90A) at mole fraction 1.0 of added mtHSP70: 83%

B1: human iron-sulfur cluster scaffold protein ISCU, wild type, mature form (natural protein, UniProt Q9H1K1 35-167, looked up)
chain: YHKKVVDHYENPRNVGSLDKTSKNVGTGLVGAPACGDVMKLQIQVDEKGKIVDARFKTFGCGSAIASSSLATEWVKGKTVEEALTIKNTDIAKELCLPPVKLHCSMLAEDAIKAALADYKLKQEPKKGEAEKK
[6]
  ATPase activity of 1 μM mtHSP70: increase over basal activity with 15 μM ISCU and 4 μM HSC20: ~15 fold
  ATPase activity of 1 μM mtHSP70: maximal stimulation upon adding ISCU in the presence of 5 μM HSC20, double-reciprocal plot: ~17 fold
